Data: the RNAGym collection of RNA variant scans (doi:10.1073/pnas.2313332121)

B1: TPR t1 (parent)
chain: GACCAAUCUGCCCUCAGAGCUCGAGAACAUCUUCGGAUGCAGAGGAGGCAGGCUUCGGUGGCGCGAUAGCGCCAACGUCCUCAACCUCCAAUGCAUCCCACCACAUGAUGAUGCCUGAAGAGCCUUGGUUUUUUG

Variants of: B1
Assay: polymerase ribozyme fitness, log enrichment relative to wild type (log ratio); higher = more active; in vitro selection for triplet polymerase activity
In short: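 Input and output libraries were sequenced on Illumina after a single in vitro selection round, run in triplicate on PCR-built, transcribed mutant libraries of each subunit of a heterodimeric triplet polymerase ribozyme. Selection annealed libraries to a biotinylated primer, the partner subunit and triplets, incubated them frozen at −7 °C, then gel-excised extended constructs for streptavidin-bead capture and RT-PCR. Genotypes with ≥10 input reads and ≥1 read per output were kept. Fitness is the logarithm, taken in base 2, of genotype enrichment divided by wild-type enrichment, using inverse-variance-weighted replicate averages.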

Variant	polymerase ribozyme fitness (log ratio)
A5C G63A C79U	-1.41
A5C G48C U78A C115A	-2.4
A5G C15G U32A G63U U112C A119U	-5.37
C3U C115U	-1.53
C4G A37U	-1.82
C4G U78C C88U C94G C124U	-2.42
C4G C70G	-3.78
C3U G110C	-4.17
C3U G60A G77U G117C	-3.58
C4U A41U G44A G45A C53U G63C	-6.08
C4A C88A	-1.56
C4A C88U	-1.68
A5C A27G G63C A121G	0.00315
A5C C56G C98A A121C	-3.33
A5C G51C G77A C80G	-0.996
C3U G57A C72U	-0.755
C4G C13U U33G G39U G44A C82U U112A	-4.58
C4G C34A C72G	-5.9
C4U C11G C12A G19C C62G	-4.71
C4G C80U	-1.83
C4U A16C C64U	-4.16

Variant	polymerase ribozyme fitness (log ratio)
C4A C115U G120A U131A	-5.05
A5C C82A U126G	-0.956
C4G U9G A41G	-1.21
C3U U7G C20U U21G C73U G110U C124G	-4.5
C3U C86A	-0.57
C4U G17C G48A G69C G120C	-4.5
C4U C13U G42A G69U G77A A90U C104U	-0.867
C3U U87A A103C	-5.54
C4U C76G C114U U129A	-4.95
A5C U78C C101U	-1.23
A5C C82G U92G U130G	-4.87
C4A A27G A75G G120U	-4.55
C3U G39U C73A C98U	-2.51
C4A A6C C11G C40U G110U	-4.57
C4G C15U	-2.66
C4U C13A A46C A50G C72U	-3.05
A5G C13A A46U G63A U133A	-2.84
C4G G135U	-2.5
C4A C73A U81A	-3.04
C4A A29G C88A	-3.39
C4U U92A	-4.01

Variant	polymerase ribozyme fitness (log ratio)
A5C G52U	-2.8
A5C G52A	-0.884
C3U U130G	-0.624
C4G G57C C89A C123A	-3.43
C3U U38A G69U U109A	-2.41
C4G A43U A46G G113A	-3.76
C4U C86U C101G	-1.82
C4U C11G U54A G63C C101A U112C	0.841
A5C G71U	-0.21
C4G U9G A41G U96C A111C U116A C123G	-1.71
C3U G60A C82A U106A G120A	0.775
C4A G36A	-2.02
C4G G51U G120U	-4.56
C4U C11U A18G C34U C73G C124G	-5.4
C4G U7G C8G G71A C98G A103C C114A G122U	-5.04
C4U C56U	-0.85
A5C G47A U59A A100C U106C	-4.2
C4A C12A C86G G120U G128C	-1.61
C4G A27U G45A G61A C86A C97A G117A	-6.02
C4U C8G U9C C11G C62G	-0.314
C3U G122A	-1.01

Variant	polymerase ribozyme fitness (log ratio)
C3U G17A G36C C49A A50U G58C G60A C88U G117U	-6.3
C3U U9A C73A C79A U92G	-3.38
C4A C72G G77A G120A	-1.74
A5C C22U C89A A121G	-4.41
C4U U14A C73U	-4.13
C4A A46U C53G U130C	-2.39
C3U C72G	-0.854
A5C C13U G60U	-0.844
A5C C8U A16U G45U G63A	-2.38
C4A G61C	-3.08
C3U C82G	-0.798
C4A G51U C70A A84C G113U C114U G128A	-6.15
C4G G44A A46U U59C	-3.73
A5G A41C	-0.911
C3U G36U G63U C88U A111U C124U	-6.17
C4G A27G A29G	-5.02
A5C C12A	-0.824
C3U C79G C97G A121G	-5.3
C4A G60A	-0.949
C4A G110U	-3.24
